Measurements taken from patent US20210105983A1.

Key:
[1] = target: humanized PD-L1 polypeptide (human portion and endogenous mouse portion) on T cells of mice homozygous for the humanized CD274 gene of Example 1 (human; mouse) (UniProt Q9NZQ7); experiment: flow cytometry, CD8+ T cells (CD3+CD8+) from spleen of humanized CD274 mouse, isotype control in α-hPD-L1 column
[2] = target: humanized PD-L1 polypeptide (human portion and endogenous mouse portion) on T cells of mice homozygous for the humanized CD274 gene of Example 1 (human; mouse) (UniProt Q9NZQ7); experiment: flow cytometry, CD4+ T cells (CD3+CD4+) from spleen of humanized CD274 mouse, isotype control in α-hPD-L1 column
[3] = target: mouse PD-L1 polypeptide on T cells of wild-type mice (mouse) (UniProt Q9EP73); experiment: flow cytometry, CD4+ T cells from spleen of wild-type mouse, isotype control in α-hPD-L1 column
Sequence of UniProt Q9EP73 (Q9EP73 19-290): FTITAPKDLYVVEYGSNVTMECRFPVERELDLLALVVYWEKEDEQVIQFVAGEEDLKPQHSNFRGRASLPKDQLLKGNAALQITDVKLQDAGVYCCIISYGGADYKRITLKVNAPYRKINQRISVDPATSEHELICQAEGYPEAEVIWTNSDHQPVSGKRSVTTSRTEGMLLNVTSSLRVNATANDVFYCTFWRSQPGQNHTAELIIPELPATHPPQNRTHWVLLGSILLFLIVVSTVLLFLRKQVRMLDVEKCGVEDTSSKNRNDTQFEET

[4] = target: mouse PD-L1 polypeptide on T cells of wild-type mice (mouse) (UniProt Q9EP73); experiment: flow cytometry, CD8+ T cells from spleen of wild-type mouse, isotype control in α-hPD-L1 column
[5] = target: mouse PD-L1 polypeptide on T cells of wild-type mice (mouse) (UniProt Q9EP73); experiment: flow cytometry, CD8+ T cells from spleen of wild-type mouse, isotype control in α-mPD-L1 column
[6] = target: humanized PD-L1 polypeptide (human portion and endogenous mouse portion) on T cells of mice homozygous for the humanized CD274 gene of Example 1 (human; mouse) (UniProt Q9NZQ7); experiment: flow cytometry, CD8+ T cells (CD3+CD8+) from spleen of humanized CD274 mouse, isotype control in α-mPD-L1 column
[7] = target: humanized PD-L1 polypeptide (human portion and endogenous mouse portion) on T cells of mice homozygous for the humanized CD274 gene of Example 1 (human; mouse) (UniProt Q9NZQ7); experiment: flow cytometry, CD4+ T cells (CD3+CD4+) from spleen of humanized CD274 mouse, isotype control in α-mPD-L1 column
[8] = target: mouse PD-L1 polypeptide on T cells of wild-type mice (mouse) (UniProt Q9EP73); experiment: flow cytometry, CD4+ T cells from spleen of wild-type mouse, isotype control in α-mPD-L1 column
[9] = target: humanized PD-L1 polypeptide (human portion and endogenous mouse portion) on T cells of mice homozygous for the humanized CD274 gene of Example 1 (human; mouse) (UniProt Q9NZQ7); experiment: flow cytometry, CD4+ T cells from spleen of humanized CD274 mouse, stimulated with anti-CD3/anti-CD28 for 72 hours
[10] = target: humanized PD-L1 polypeptide (human portion and endogenous mouse portion) on T cells of mice homozygous for the humanized CD274 gene of Example 1 (human; mouse) (UniProt Q9NZQ7); experiment: flow cytometry, CD8+ T cells from spleen of humanized CD274 mouse, unstimulated
[11] = target: mouse PD-L1 polypeptide on T cells of wild-type mice (mouse) (UniProt Q9EP73); experiment: flow cytometry, CD8+ T cells from spleen of wild-type mouse, stimulated with anti-CD3/anti-CD28 for 72 hours
[12] = target: humanized PD-L1 polypeptide (human portion and endogenous mouse portion) on T cells of mice homozygous for the humanized CD274 gene of Example 1 (human; mouse) (UniProt Q9NZQ7); experiment: flow cytometry, CD8+ T cells from spleen of humanized CD274 mouse, stimulated with anti-CD3/anti-CD28 for 72 hours
[13] = target: mouse PD-L1 polypeptide on T cells of wild-type mice (mouse) (UniProt Q9EP73); experiment: flow cytometry, CD4+ T cells from spleen of wild-type mouse, stimulated with anti-CD3/anti-CD28 for 72 hours
[14] = target: mouse PD-L1 polypeptide on T cells of wild-type mice (mouse) (UniProt Q9EP73); experiment: flow cytometry, CD8+ T cells from spleen of wild-type mouse, unstimulated
[15] = target: humanized PD-L1 polypeptide (human portion and endogenous mouse portion) on T cells of mice homozygous for the humanized CD274 gene of Example 1 (human; mouse) (UniProt Q9NZQ7); experiment: flow cytometry, CD4+ T cells from spleen of humanized CD274 mouse, unstimulated
[16] = target: mouse PD-L1 polypeptide on T cells of wild-type mice (mouse) (UniProt Q9EP73); experiment: flow cytometry, CD4+ T cells from spleen of wild-type mouse, unstimulated

Sequence of UniProt Q9NZQ7 (Q9NZQ7 other isoform, or with tags, fused parts or gaps limits assumed): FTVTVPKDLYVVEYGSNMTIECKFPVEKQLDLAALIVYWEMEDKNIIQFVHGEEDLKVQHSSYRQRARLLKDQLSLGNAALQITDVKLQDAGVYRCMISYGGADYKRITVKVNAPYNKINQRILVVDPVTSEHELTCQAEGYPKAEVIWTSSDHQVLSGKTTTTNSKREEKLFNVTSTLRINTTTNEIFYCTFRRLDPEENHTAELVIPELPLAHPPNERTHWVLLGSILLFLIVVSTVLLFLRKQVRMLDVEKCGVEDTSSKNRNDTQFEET

Mean Fluorescence Intensity [1]	Mean Fluorescence Intensity [2]	Mean Fluorescence Intensity [3]	Mean Fluorescence Intensity [4]	Mean Fluorescence Intensity [5]	Mean Fluorescence Intensity [6]	Mean Fluorescence Intensity [7]	Mean Fluorescence Intensity [8]	Mean Fluorescence Intensity [9]	Mean Fluorescence Intensity [10]	Mean Fluorescence Intensity [11]	Mean Fluorescence Intensity [12]	Mean Fluorescence Intensity [13]	Mean Fluorescence Intensity [14]	Mean Fluorescence Intensity [15]	Mean Fluorescence Intensity [16]	Substance
78	-55	-58	64													Isotype control (α-hPD-L1 columns of Table 5) (antibody)
				64	84	-52	-39									Isotype control (α-mPD-L1 columns of Table 5) (antibody)
								457	271	113	384	22	62	114	-45	anti-human PD-L1 antibody, clone MIH1 (BD Biosciences)
								155	160	3170	276	2800	712	61	538	anti-mouse PD-L1 antibody, clone 10F.9G2 (eBioscience)
